Experimental findings from patent US20260250421A1 (BIOCYTOGEN PHARMACEUTICALS BEIJING, published 2026) are described below.

In test [1] the target is T1, His-tagged cynomolgus monkey PTK7 protein (cynomolgus monkey, UniProt A0A2K5VNI5 39-712).
T1 construct: Bought protein; also called cPTK7-His; ACRO Biosystems Cat# PT7-C52H3; not shown: His tag
T1 sequence: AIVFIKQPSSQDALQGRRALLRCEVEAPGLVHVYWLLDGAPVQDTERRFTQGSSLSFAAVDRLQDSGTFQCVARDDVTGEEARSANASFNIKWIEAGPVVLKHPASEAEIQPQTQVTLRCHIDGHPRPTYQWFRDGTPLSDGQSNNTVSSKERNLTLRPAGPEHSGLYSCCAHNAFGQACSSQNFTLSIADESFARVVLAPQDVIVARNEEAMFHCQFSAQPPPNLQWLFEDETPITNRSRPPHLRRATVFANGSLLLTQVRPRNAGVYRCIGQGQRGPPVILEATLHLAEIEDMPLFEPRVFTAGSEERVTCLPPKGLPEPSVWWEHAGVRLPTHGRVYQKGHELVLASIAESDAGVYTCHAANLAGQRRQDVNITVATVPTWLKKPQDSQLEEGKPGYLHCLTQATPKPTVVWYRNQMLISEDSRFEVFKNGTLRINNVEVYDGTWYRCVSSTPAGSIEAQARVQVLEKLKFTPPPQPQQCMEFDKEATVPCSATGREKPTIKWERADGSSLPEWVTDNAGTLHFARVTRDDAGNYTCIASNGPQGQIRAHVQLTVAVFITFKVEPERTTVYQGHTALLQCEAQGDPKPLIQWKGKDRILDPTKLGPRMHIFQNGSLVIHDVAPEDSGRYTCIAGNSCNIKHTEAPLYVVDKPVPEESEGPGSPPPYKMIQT
The experiment in a line: SPR Biacore 8K, Ab on Protein A chip.

Test [2] has as its target T2, His-tagged monkey TROP2 protein (cynomolgus monkey; Rhesus …, UniProt A0A5F8AGB8 27-274).
T2 construct: also called cTROP2-His; ACRO Biosystems Cat# TR2-R52H3
T2 sequence: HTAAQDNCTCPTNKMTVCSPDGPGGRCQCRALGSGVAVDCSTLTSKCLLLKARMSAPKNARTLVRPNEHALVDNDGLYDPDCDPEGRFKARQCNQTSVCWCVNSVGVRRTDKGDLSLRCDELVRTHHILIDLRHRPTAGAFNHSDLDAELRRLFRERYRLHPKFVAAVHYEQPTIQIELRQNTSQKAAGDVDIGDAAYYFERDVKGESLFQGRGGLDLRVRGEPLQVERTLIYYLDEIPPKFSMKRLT
As to the kind of experiment: SPR Biacore 8K, Ab on Protein A chip. (In general: In SPR one partner is held on a chip, and binding of the other changes the refractive index at the surface.)

Test [3] deals with T3, TROP2 on NCI-H1975 and NUGC-4 tumor cells (UniProt P09758 27-323, limits assumed).
T3 construct: whole, on cells; species of the lines is not worded there; also called TROP2 on cells
T3 sequence (looked up): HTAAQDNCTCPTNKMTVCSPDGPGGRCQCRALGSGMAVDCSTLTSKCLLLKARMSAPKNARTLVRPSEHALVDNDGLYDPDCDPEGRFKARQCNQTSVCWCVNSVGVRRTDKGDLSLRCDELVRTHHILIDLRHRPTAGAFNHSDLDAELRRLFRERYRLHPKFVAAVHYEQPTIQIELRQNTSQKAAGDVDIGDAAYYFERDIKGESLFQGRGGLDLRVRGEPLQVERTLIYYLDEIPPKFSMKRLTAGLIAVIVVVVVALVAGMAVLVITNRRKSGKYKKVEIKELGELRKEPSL
As to the kind of experiment: flow cytometry on NCI-H1975 cells co-expressing PTK7 and TROP2; the single curve of the bispecific is not resolved between the two targets; anti-hIgG-Fc Alexa Fluor 647 secondary antibody, MFI [A]. How it is done: This experiment was performed to test the binding activities of the anti-PTK7/TROP2 bispecific antibodies to different tumor cell lines. NCI-H1975 cells or NUGC-4 cells were transferred to a 96-well plate at a density of 5×10⁴ cells/well respectively. The sample antibody was added to the 96-well plate, and incubated at 4° C. for 30 min.

B1: 3C4-18E9 (bispecific antibody, human IgG1, V domains shown)
VH 1: QVQLEQSRAEVKKPGESLRISCKGSGYSFTSYWISWVRQMPGKGLEWMGRIDPSDSYTNYNPSFQGHVTISADKSISTAYLQWSSLKASDTAMYYCARRDGSYFDFDYWGQGTLVTVSS
VH 2: QLQLQQSGPGLLKPSETLSLTCTVSGGSISSSYYFWGWIRQPPGKGLEWIGAIYYIGNTHYNPSLKSRVTISIDTSKNQFSLNLNSVTAADTAIYYCARYEDTWNWFDPWGQGTLVTVSS
VL: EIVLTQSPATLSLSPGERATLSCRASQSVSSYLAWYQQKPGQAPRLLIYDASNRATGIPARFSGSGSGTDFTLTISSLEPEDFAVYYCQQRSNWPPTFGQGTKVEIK
notes: which arm carries the knob is stated only for 3C4-6F7; also called anti-PTK7/TROP2 bispecific antibody 3C4-18E9
Take B1: in test [1], the equilibrium dissociation constant (Kd) (as a rule, the concentration at which binding is half-saturated) was found to be 13.1 nM; the koff (usually a measure of how fast the partners let go of each other) was 0.00167 s⁻¹; the kon (in general, a measure of how fast the partners come together) was determined as 127000 M⁻¹ s⁻¹. Also, in test [2], binding was characterised by a dissociation constant (Kd) of 3.16 nM, the dissociation rate constant (koff) is 0.00104 s⁻¹ and the kon came out at 329000 M⁻¹ s⁻¹. In addition, the EC50 (read off the curve) (as a rule, the concentration at which the effect is half-maximal) in test [3] was roughly 0.7 µg/mL.
